Source: patent publication US20180326022A1, “COMPOSITIONS AND METHODS FOR IMPROVING HEART FUNCTION AND TREATING HEART FAILURE” (The Trustees of the University of Pennsylvania, priority 2017, published 2018)

Biological target: detyrosinated microtubules (rat cardiomyocytes) (rat)
Test: cell-based or functional assay

## human tubulin tyrosine ligase (TTL) (from UniProt Q8NG68 1-377)
  Detyr (% cell area), immunofluorescence, TTL overexpressing cells (null: 43.9): 12.9 % cell area
